This note sets out measurements from article PMC10881042.

The target in assay [1] is PKA type II regulatory subunit RIIα, in H295R adrenal cells (UniProt P13861).
For assay [2], the target named is PKA type I regulatory subunit RIα, in H295R adrenal cells (human (endogenous in H295R)) (UniProt P10644).
Sequence of UniProt P10644 (P10644 whole entry, stated change not applied): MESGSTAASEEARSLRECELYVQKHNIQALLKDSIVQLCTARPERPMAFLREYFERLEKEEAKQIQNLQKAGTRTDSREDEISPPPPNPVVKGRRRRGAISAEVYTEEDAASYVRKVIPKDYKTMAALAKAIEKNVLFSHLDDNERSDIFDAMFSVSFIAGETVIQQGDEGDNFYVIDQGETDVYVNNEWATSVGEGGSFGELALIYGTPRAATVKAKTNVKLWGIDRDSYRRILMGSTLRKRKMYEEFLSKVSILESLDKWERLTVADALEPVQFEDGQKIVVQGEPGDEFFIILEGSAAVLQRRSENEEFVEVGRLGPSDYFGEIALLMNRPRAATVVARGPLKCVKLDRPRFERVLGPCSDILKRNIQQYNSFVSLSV

Sequence of UniProt P13861 (P13861 whole entry, stated change not applied): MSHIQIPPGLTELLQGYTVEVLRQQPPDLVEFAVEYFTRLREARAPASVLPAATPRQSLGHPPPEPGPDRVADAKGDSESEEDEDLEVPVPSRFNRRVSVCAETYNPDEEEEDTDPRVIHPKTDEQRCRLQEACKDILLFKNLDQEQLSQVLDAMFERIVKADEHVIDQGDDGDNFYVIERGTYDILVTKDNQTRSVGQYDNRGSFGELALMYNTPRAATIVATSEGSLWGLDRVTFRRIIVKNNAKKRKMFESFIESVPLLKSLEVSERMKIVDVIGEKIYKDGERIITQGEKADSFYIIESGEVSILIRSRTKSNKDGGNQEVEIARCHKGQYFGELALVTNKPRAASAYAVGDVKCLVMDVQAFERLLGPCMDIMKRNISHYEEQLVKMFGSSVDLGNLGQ

Turning to “V5-tagged PKAc-W196R, in H295R adrenal cells (enzyme)”, in assay [1], the residence of photoactivatable-mCherry PKAc at the site of photoactivation after 12.5 s in H295R cells with AKAP79-YFP and RIIα-iRFP stood at 30%. The residence of photoactivatable-mCherry PKAc at the site of photoactivation after 12.5 s in H295R cells with smAKAP-GFP and RIα-iRFP in assay [2] was 40%.
